Data as given in patent US20180086841A1 (Merck Sharp & Dohme, published 2018).
Where a chain is given by its changes, count along the chain named. Each block holds one binder with its values, some of them ahead of it.

What was measured:
[1] = biological target: T1, Macaca mulatta CD27 (mmCD27) (Macaca mulatta (rhesus) / Macaca …, UniProt P26842 21-260 (human entry)); experiment: cell-based or functional assay
T1 chain: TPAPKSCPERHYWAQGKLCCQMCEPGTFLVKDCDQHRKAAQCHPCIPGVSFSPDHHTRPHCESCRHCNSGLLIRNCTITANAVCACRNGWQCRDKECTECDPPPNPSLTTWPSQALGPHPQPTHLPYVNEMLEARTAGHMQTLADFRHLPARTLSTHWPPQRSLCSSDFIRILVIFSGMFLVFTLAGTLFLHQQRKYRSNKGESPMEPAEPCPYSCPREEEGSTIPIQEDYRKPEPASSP

[2] = biological target: T2, human CD27 (human, UniProt P26842 21-260); experiment: cell-based or functional assay
[3] = biological target: T3, human CD27 (A59T) (human, UniProt P26842 21-260); experiment: cell-based or functional assay
[4] = biological target: T1, Macaca mulatta CD27 (mmCD27); experiment: cell-based or functional assay
[5] = biological target: T2, human CD27; experiment: cell ELISA on human CD27 CHOK1 cells, hIgG1
Description: (§1) Purified antibodies were assayed for binding to human CD27 expressing CHOK1 cells using a cell-based ELISA format. Human CD27 expressing CHOK1 cells were plated in 96-well tissue-culture plates in 50 μl of DMEM/F12, 10% BCS (bovine calf serum) (CHO-K1 media). Cells were plated at either 2×10⁴ cells/well two days prior to the assay or 4×10⁴ cells/well one day prior to the assay. Media was removed from the wells prior to the assay followed by incubation of mAb in 100 μL fresh culture medium at a starting concentration of 10 μg/mL and 8 step 1:5 serial dilutions (hIgG4 antibodies) or starting concentration of 50 μg/mL and 8 step 1:5 serial dilutions (hIgG1 antibodies). The antibodies were incubated for 30-60 minutes at room temperature and washed 3 times with PBS/0.05% Tween 20 using a cell ELISA washing protocol on the Biotek EL405x Select CW plate washer.

[6] = biological target: T2, human CD27; experiment: cell ELISA on CD27-transfected CHOK1 cells, n=2
Description: (§2) Purified antibodies were assayed for binding to human CD27 expressing CHOK1 cells, human CD27 A59T expressing CHOK1 cells, and cross-reactivity to rhesus CD27 expressing CHOK1 cells using a cell-based ELISA format. Human CD27 expressing CHOK1 cells, human CD27 A59T expressing CHOK1 cells, and rhesus CD27 expressing CHOK1 cells were plated in 96-well tissue-culture plates in 50 μl of DMEM/F12, 10% BCS and gentamycin (CHO-K1 media). Cells were plated at either 2×10⁴ cells/well two days prior to the assay or 4×10⁴ cells/well one day prior to the assay. Media was removed from the wells prior to the assay followed by incubation of mAb in 100 μL fresh culture medium at a starting concentration of 10 μg/mL and 8 step 1:4 serial dilutions. The antibodies were incubated for 30-60 minutes at room temperature and washed 3 times with PBS/0.05% Tween 20 using a cell ELISA washing protocol on the Biotek EL405x Select CW plate washer. […] Assay plates were washed as above and developed with TMB and stopped with TMB stop solution (KPL cat#50-85-06) or 0.1N phosphoric acid. The plate was read on a Molecular Devices VersaMax plate reader at 450 nm/650 nm. Titration curves were used to determine the half-maximal effective concentration (EC₅₀).

[7] = biological target: T3, human CD27 (A59T); experiment: cell ELISA on CD27-transfected CHOK1 cells, n=2
Description: as §2

[8] = biological target: T1, Macaca mulatta CD27 (mmCD27); experiment: cell ELISA on CD27-transfected CHOK1 cells, n=2
Description: as §2

[9] = biological target: T2, human CD27; experiment: flow cytometry MFI, CD4+ T cells of human PBMC, N=2 donors
Description: (§3) Labeled cells were washed by re-suspending them in 150 ul of staining buffer (SB) followed by centrifugation at 300 g for 5 minutes. Cells were then resuspended in 100 ul of SB containing primary anti-CD27 antibodies at various concentrations, incubated in the dark at 4° C. for 30 minutes, followed by washing and centrifugation steps as previously described. […] Cells were incubated for 30 minutes at 4° C. in the dark, followed by washing and centrifugation steps. Next, cells were stained with a cocktail of phenotypic antibodies for surface markers (CD3, CD4, CD8, CD11b) and incubated for 30 minutes at 4° C. in the dark, followed by washing and centrifugation steps. […] Samples were acquired in a LSR-Fortessa flow cytometer (BD Biosciences) using the high throughput sampler and data analyzed by FlowJo software (Tree Star Inc).

[10] = biological target: T2, human CD27; experiment: flow cytometry MFI, CD8+ T cells of human PBMC, N=2 donors
Description: as §3

[11] = biological target: T2, human CD27; experiment: flow cytometry MFI, CD4+ T cells in human peripheral blood, n=4
Description: (§4) Upon receipt, blood was visually confirmed to be devoid of obvious signs of lysis or clotting. […] Red blood cells (RBCs) were then lysed by incubation with 1.7 mL of Ammonium-Chloride-Potassium red blood cell lysing solution (Life Technologies, catalog no. A10492-01) for 5 minutes. The lysis step was repeated once more with 2 ml of ACK lysing solution, and then again with 300 ml of ACK lysing solution. Cells were then washed after adding 1.7 ml of phosphate buffered saline (PBS) (Hyclone, catalog no. SH30028.02). […] After a final wash in SB, samples were acquired in a LSR-Fortessa flow cytometer (BD Biosciences) using the high throughput sampler and data analyzed by FlowJo software (Tree Star Inc).

[12] = biological target: T2, human CD27; experiment: flow cytometry MFI, CD8+ T cells in human peripheral blood, n=4
Description: as §4

[13] = biological target: T1, Macaca mulatta CD27 (mmCD27); experiment: flow cytometry MFI, CD4+ T cells in rhesus peripheral blood, n=4
Description: as §4

[14] = biological target: T1, Macaca mulatta CD27 (mmCD27); experiment: flow cytometry MFI, CD8+ T cells in rhesus peripheral blood, n=4
Description: as §4

[15] = biological target: T4, human CD27-Fc fusion protein (human, UniProt P26842 21-191); experiment: SPR Biacore T200, CD27-Fc amine-coupled, antibody injected, 1:1 Langmuir fit
T4 construct: not shown: Fc part

[16] = biological target: T5, human CD27 A59T-Fc fusion protein (human, UniProt P26842 21-191); experiment: as above
T5 construct: not shown: Fc part
T5 chain: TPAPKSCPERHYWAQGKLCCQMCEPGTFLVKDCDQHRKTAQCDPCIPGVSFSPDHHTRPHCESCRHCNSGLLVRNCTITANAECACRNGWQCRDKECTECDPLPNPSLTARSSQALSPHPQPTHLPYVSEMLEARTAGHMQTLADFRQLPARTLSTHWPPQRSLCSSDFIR

[17] = biological target: T6, rhesus macaque CD27-Fc fusion protein (rhesus macaque, UniProt P26842 21-191 (human entry), limits assumed); experiment: as above
T6 construct: not shown: Fc part
T6 chain: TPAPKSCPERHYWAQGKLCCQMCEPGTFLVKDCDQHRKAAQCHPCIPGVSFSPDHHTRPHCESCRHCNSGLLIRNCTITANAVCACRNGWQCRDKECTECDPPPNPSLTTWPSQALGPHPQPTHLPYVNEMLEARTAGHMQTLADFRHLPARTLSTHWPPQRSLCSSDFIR

[18] = biological target: T7, His9G-tagged human CD27 recombinant protein (human, UniProt P26842 21-191); experiment: SPR Biacore 4000, antibody captured on anti-human Fc, His9G-tagged CD27 injected, 1:1 fit;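 note: Double-referenced SPR (blank anti-Fc surface and buffer injection subtracted), KD derived from association and dissociation rate constants, with human and cynomolgus CD27 as analytes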
T7 construct: In-house, transient transfection of HEK293 cells; also called Human CD27/His
Excerpt: (§5) Flow cell spots modified with anti-human Fc antibody but lacking CD27 antibodies were used as reference. […] The chip surface was regenerated with a 30 second injection of 3M MgCl₂ after each injection cycle.
(§6) Data were double referenced by subtracting the response from a blank surface and that from a buffer injection and used for analyzing the rate constant of association (kₐ) and dissociation (kd), and the equilibrium dissociation constant KD. The resulting data sets were fitted with a Langmuir 1:1 binding model using the Biacore 4000 BIAevaluation software, version 1.0 (GE/Biacore).

[19] = biological target: T8, His9G-tagged cynomolgus CD27 recombinant protein (cynomolgus, limits assumed); experiment: as above
T8 construct: In-house, transient transfection of HEK293 cells; also called Cyno CD27/His
T8 chain: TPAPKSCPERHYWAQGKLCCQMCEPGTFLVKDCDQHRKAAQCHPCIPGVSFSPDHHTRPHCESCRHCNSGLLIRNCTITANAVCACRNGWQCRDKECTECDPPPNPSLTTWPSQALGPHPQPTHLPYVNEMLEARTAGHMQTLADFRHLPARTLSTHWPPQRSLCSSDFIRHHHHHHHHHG
Excerpt: as §5, §6

[20] = biological target: T2, human CD27; experiment: flow cytometry on primary T cells
[21] = biological target: T2, human CD27; experiment: cell ELISA on transfected CHO cells
Description: as §1

[22] = biological target: T2, human CD27; experiment: cell-based or functional assay; remark: listed apart in the source
[23] = biological target: T3, human CD27 (A59T); experiment: cell-based or functional assay; remark: listed apart in the source
[24] = biological target: T1, Macaca mulatta CD27 (mmCD27); experiment: cell-based or functional assay
[25] = biological target: T1, Macaca mulatta CD27 (mmCD27); experiment: flow cytometry on transiently transfected CHO-K1 cells
[26] = biological target: T2, human CD27; experiment: as above
Excerpt: HsCD27 and MmCD27 were expressed on CHO-K1 by transient transfection.

NF-κB-luciferase reporter assay, potency against human CD27 [1]: ~7 fold
NF-κB-luciferase reporter assay, EC50 [2]: 2.22 nM
NF-κB-luciferase reporter assay, Emax [2]: 2.96 fold change
NF-κB-luciferase reporter assay, EC50 [3]: 4.72 nM
NF-κB-luciferase reporter assay, Emax [3]: 3.22 fold change
NF-κB-luciferase reporter assay, EC50 [4]: 0.29 nM
NF-κB-luciferase reporter assay, Emax [4]: 2.11 fold change
EC50 [5]: 0.155 nM
EC50 [6]: 0.072 nM
EC50 [7]: 0.097 nM
EC50 [8]: 0.054 nM
EC50 [9]: 0.137 nM
EC50 [10]: 0.123 nM
EC50 [11]: 0.32 nM
EC50 [12]: 0.3 nM
EC50 [13]: 0.17 nM
EC50 [14]: 0.22 nM
Kd [15]: 5.1 nM
Kd [16]: 7.3 nM
Kd [17]: 4.3 nM
Kd [18]: 65.2 nM
Kd [19]: 51.5 nM
B1: 131AVH6VL6-hIgG1 (antibody)
heavy: not shown
light: EIVLTQSPATLSLSPGERATLSCSASSSVSYMHWYQQKPGQAPKRWIYDTSKLASGVPARFSGSGSGTDYSLTISSLEPEDFAVYYCQQWNSYPFTFGQGTKLEIKRTVAAPSVFIFPPSDEQLKSGTASVVCLLNNFYPREAKVQWKVDNALQSGNSQESVTEQDSKDSTYSLSSTLTLSKADYEKHKVYACEVTHQGLSSPVTKSFNRGEC
notes: also called hCD27.131A VH6VL6 huIgG1

Kd [15]: 6.4 nM
Kd [16]: 8.2 nM
Kd [17]: 5.5 nM
B2: 131AVH6VL6-hIgG2 (antibody)
heavy: EIQLVQSGAEVKKPGASVKVSCKASGYTFTNYGMNWVKQAPGQGLKWMGWINTNTGEPTYAEEFKGRFTFTLDTSISTAYMELSSLRSEDTAVYYCAREGDAMDYWGQGTTVTVSSASTKGPSVFPLAPCSRSTSESTAALGCLVKDYFPEPVTVSWNSGALTSGVHTFPAVLQSSGLYSLSSVVTVPSSNFGTQTYTCNVDHKPSNTKVDKTVERKCCVECPPCPAPPVAGPSVFLFPPKPKDTLMISRTPEVTCVVVDVSHEDPEVQFNWYVDGVEVHNAKTKPREEQFNSTFRVVSVLTVVHQDWLNGKEYKCKVSNKGLPAPIEKTISKTKGQPREPQVYTLPPSREEMTKNQVSLTCLVKGFYPSDIAVEWESNGQPENNYKTTPPMLDSDGSFFLYSKLTVDKSRWQQGNVFSCSVMHEALHNHYTQKSLSLSPGK
light: B1 light
notes: also called 131A6 IgG2 (humanized)

EC50 relative to 131AVH6VL6-hIgG1 [20]: ≤ 10 % above the EC50 of 131AVH6VL6-hIgG1
fold EC50 against 131AVH6VL6-hIgG1 [21]: ≤ 2 fold
EC50 [5]: 0.144 nM
EC50 [9]: 0.118 nM
EC50 [10]: 0.118 nM
Kd [18]: 44.9 nM
Kd [19]: 36.5 nM
B6: hCD27.131A VH7VL8 huIgG1 (antibody, V domains shown)
VH: EIQLVQSGAEVKKPGASVKISCKASGYTFTNYGMNWVKQAPGQGLKWMGWINTNTGEPTYAEEFKGRFTFTLDTSATTAYLEISSLRSEDTAVYYCAREGDAMDYWGQGTTVTVSS
VL: EIVLTQSPATLSASPGERVTLSCSASSSVSYMHWYQQKPGQAPKRWIYDTSKLASGVPARFSGSGSGTDYSLTISSMEPEDFAVYYCQQWNSYPFTFGQGTKLEIK

NF-κB-luciferase reporter assay, Fold Change values at 2.5 µg/ml [22]: 1.82 fold change
NF-κB-luciferase reporter assay, Fold Change values at 2.5 µg/ml [23]: 0.97 fold change
NF-κB-luciferase reporter assay, Fold Change values at 2.5 µg/ml [24]: 0.99 fold change
B8: hCD27.15-4B IgG4 (antibody, V domains shown)
VH: QVQLVQSGAEVKKPGASVKVSCKASGFIIKATYMHWVRQAPGQRLEWMGRIDPANGETKYDPKFQVRVTITADTSASTAYMELSSLRSEDTAVYYCARYAWYFDVWGQGTLVTVSS
VL: DIQMTQSPSSLSASVGDRVTITCRASENIYSFLAWYQQKPGKAPKLLIYHAKTLAEGVPSRFSGSGSGTDFTLTISSLQPEDFATYYCQHYYGSPLTFGQGTKVEIKR

The remaining lines, values behind:

B3: hCD27.131A VH7VL7 huIgG1 (antibody, V domains shown)
VH: B6 VH
VL: B6 VL with A13L, V19A, D69S, M77L, V84T
EC50 relative to 131AVH6VL6-hIgG1 [20]: ≤ 10 % above the EC50 of 131AVH6VL6-hIgG1
fold EC50 against 131AVH6VL6-hIgG1 [21]: ≤ 2 fold
EC50 [5]: 0.207 nM
EC50 [9]: 0.113 nM
EC50 [10]: 0.111 nM
Kd [18]: 38.9 nM
Kd [19]: 31.7 nM

B4: hCD27.131A VH8VL7 huIgG1 (antibody, V domains shown)
VH: B6 VH with I20V, A76I, T77S, L81M, I83L, S88N
VL: B6 VL with A13L, V19A, D69S, M77L, V84T
EC50 relative to 131AVH6VL6-hIgG1 [20]: ≤ 10 % above the EC50 of 131AVH6VL6-hIgG1
fold EC50 against 131AVH6VL6-hIgG1 [21]: ≤ 2 fold
EC50 [5]: 0.262 nM
EC50 [9]: 0.115 nM
EC50 [10]: 0.111 nM
Kd [18]: 63.3 nM
Kd [19]: 44.1 nM

B5: hCD27.131A VH8VL6 huIgG1 (antibody, V domains shown)
VH: B6 VH with I20V, A76I, T77S, L81M, I83L, S88N
VL: B6 VL with A13L, V19A, M77L
EC50 relative to 131AVH6VL6-hIgG1 [20]: ≤ 10 % above the EC50 of 131AVH6VL6-hIgG1
fold EC50 against 131AVH6VL6-hIgG1 [21]: ≤ 2 fold
EC50 [5]: 0.298 nM
EC50 [9]: 0.124 nM
EC50 [10]: 0.113 nM
Kd [18]: 64.4 nM
Kd [19]: 46.6 nM

B7: hCD27.131A VH8VL8 huIgG1 (antibody, V domains shown)
VH: B6 VH with I20V, A76I, T77S, L81M, I83L, S88N
VL: B6 VL
EC50 relative to 131AVH6VL6-hIgG1 [20]: ≤ 10 % above the EC50 of 131AVH6VL6-hIgG1
fold EC50 against 131AVH6VL6-hIgG1 [21]: ≤ 2 fold
EC50 [5]: 0.145 nM
EC50 [9]: 0.135 nM
EC50 [10]: 0.131 nM
Kd [18]: 61 nM
Kd [19]: 32.3 nM

B9: hCD27.15-c4 (antibody, human IgG4 S228P, kappa, V domains shown)
VH: EVRLQQSGADLVKPGASVKLSCTASGFIIKATYMHWVRQRPEQGLEWIGRIDPANGETKYDPKFQVKATITADTSSSTAYLQLNSLTSDDTAVYYCARYAWYFDVWGAGTTVTVSS
VL: DIQMTQSPASLSASVGDTVTITCRASENIYSFLAWYHQKQGRSPQLLVYHAKTLAEGVPSRFSGSGSGTQFSLKINSLQAEDFGSYYCQHYYGSPLTFGAGTKLEVKR
notes: also called hCD27.15 (chimeric c-4); C4-hCD27.15 chimeric antibody
binding result [25]: no binding
binding result [26]: binds
